The values below are quoted from earlier work in PMC5871670.

The target in one data set is Factor XI (Homo sapiens) (UniProt P03951).
Data set [1] addresses cytokeratin 1 (CK1) (Homo sapiens) (UniProt P04264). The data set is described as follows: surface plasmon resonance. (In general: SPR reads the build-up and loss of mass on a sensor chip optically.)
The target of the next data set is uPAR (Homo sapiens) (UniProt Q03405). The data set is described as follows: surface plasmon resonance.
The target of a further data set is gC1q-R (Homo sapiens) (UniProt Q07021). The data set is described as follows: surface plasmon resonance.
Sequence of UniProt Q07021 (Q07021 74-282): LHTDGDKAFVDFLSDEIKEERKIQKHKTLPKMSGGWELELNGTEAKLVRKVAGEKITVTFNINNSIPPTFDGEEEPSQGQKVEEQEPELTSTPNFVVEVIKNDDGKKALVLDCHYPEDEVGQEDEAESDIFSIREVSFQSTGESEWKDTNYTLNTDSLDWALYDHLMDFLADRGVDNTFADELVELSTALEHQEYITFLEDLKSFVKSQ

Sequence of UniProt P04264 (P04264 2-644): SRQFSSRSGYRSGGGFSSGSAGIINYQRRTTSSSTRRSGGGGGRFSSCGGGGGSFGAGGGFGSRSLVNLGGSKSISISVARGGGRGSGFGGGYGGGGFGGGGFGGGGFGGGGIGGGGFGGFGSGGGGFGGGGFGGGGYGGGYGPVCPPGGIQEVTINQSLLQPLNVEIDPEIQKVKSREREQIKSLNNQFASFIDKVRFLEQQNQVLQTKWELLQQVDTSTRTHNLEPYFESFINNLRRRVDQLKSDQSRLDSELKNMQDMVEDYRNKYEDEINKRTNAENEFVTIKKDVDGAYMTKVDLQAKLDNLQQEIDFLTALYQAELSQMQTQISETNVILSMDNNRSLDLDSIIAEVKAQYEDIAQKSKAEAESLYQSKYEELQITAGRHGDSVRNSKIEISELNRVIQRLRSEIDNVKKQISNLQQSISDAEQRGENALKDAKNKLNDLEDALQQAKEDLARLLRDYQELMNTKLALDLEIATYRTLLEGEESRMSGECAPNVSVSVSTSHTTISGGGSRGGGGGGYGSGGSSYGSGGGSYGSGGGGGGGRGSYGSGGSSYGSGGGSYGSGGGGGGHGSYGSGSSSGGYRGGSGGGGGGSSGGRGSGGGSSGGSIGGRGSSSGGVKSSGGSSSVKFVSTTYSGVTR
Sequence of UniProt Q03405 (Q03405 23-305): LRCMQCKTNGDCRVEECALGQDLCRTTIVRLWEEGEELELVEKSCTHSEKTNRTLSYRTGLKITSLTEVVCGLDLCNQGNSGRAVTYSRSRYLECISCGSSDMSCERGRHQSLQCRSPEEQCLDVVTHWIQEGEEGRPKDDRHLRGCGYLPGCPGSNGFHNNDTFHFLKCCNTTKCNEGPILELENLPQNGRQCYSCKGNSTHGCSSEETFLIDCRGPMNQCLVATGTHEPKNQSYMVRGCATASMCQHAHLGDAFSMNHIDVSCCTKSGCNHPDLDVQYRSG
Sequence of UniProt P03951 (P03951 388-625): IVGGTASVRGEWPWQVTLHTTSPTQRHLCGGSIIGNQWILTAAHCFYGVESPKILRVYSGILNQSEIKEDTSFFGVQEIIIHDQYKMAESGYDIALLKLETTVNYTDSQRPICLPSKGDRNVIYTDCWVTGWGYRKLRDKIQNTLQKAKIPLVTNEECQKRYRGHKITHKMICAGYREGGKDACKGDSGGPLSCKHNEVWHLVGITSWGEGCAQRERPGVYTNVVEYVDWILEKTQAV

On to GPIbα (from UniProt P07359), for which the dissociation constant Kd (in general, the constant that tells how readily two partners part at equilibrium) with Factor XI (Homo sapiens) is 52 nM.

For “high molecular weight kininogen (HK) (from UniProt P01042)”, the equilibrium dissociation constant (Kd) in data set [1] was 15 nM; with uPAR (Homo sapiens), 2300 nM; with gC1q-R (Homo sapiens), 0.8 nM.
